B1: NLV3 TCR beta chain (CDR3β only) (parent)
chain: ASSPTGGSPSPLH
partner: NLCPMVATV

This assay covers variants of B1. In words: T-Switch: Jurkat TCRβ−/− cells expressing a CDR3 saturation-mutagenesis library, stained with two peptide-HLA-A*02:01 tetramers (original and novel peptide) plus anti-CD3, FACS-sorted into four gates, gDNA sequenced. The note with it: with HLA-A*02:01 with peptide … (NLV 2-1, the novel peptide), tetramers 1 µg/mL, 30 min on ice, SP, DP and SW gates expanded about 10 days between rounds ('two to three rounds of selection' in the Methods), gate SW: higher = more of the variant in the gate that binds the novel peptide and not the original one = switched binding. Fold enrichment of the CDR3 variant in one FACS gate of a two-tetramer stain, unresolved parent, parent is a CDR3 fragment, scale: fold enrichment, numbering: sequential-on-construct, sequence starts at 1.
Take […] (CDR3 as printed); H13V derived by comparing it with the table's wild-type CDR3 ASSPTGGSPSPLH: the enrichment worked out at 0.

With […] (CDR3 as printed); H13K derived by comparing it with the table's wild-type CDR3 ASSPTGGSPSPLH, the enrichment is 0.

Consider […] (CDR3 as printed); P11T derived by comparing it with the table's wild-type CDR3 ASSPTGGSPSPLH, for which the enrichment is 0.

Consider […] (CDR3 as printed); P11G derived by comparing it with the table's wild-type CDR3 ASSPTGGSPSPLH, for which the enrichment came out at 0.

In the case of […] (CDR3 as printed); A1D derived by comparing it with the table's wild-type CDR3 ASSPTGGSPSPLH, the enrichment worked out at 0.

For […] (CDR3 as printed); A1V derived by comparing it with the table's wild-type CDR3 ASSPTGGSPSPLH, the enrichment was 0.

In the case of […] (CDR3 as printed); P11D derived by comparing it with the table's wild-type CDR3 ASSPTGGSPSPLH, the enrichment is 0.

In the case of […] (CDR3 as printed); G6L derived by comparing it with the table's wild-type CDR3 ASSPTGGSPSPLH, the enrichment was 0.

For […] (CDR3 as printed); L12S derived by comparing it with the table's wild-type CDR3 ASSPTGGSPSPLH, the enrichment is 0.

For the variant […] (CDR3 as printed); P11F derived by comparing it with the table's wild-type CDR3 ASSPTGGSPSPLH, the enrichment was 0.

Take […] (CDR3 as printed); A1I derived by comparing it with the table's wild-type CDR3 ASSPTGGSPSPLH: the enrichment worked out at 0.

On to […] (CDR3 as printed); G7F derived by comparing it with the table's wild-type CDR3 ASSPTGGSPSPLH, for which the enrichment was 0.

Turning to […] (CDR3 as printed); A1Q derived by comparing it with the table's wild-type CDR3 ASSPTGGSPSPLH, the enrichment was 0.

Regarding […] (CDR3 as printed); L12E derived by comparing it with the table's wild-type CDR3 ASSPTGGSPSPLH, the enrichment was determined as 0.

Regarding […] (CDR3 as printed); P11M derived by comparing it with the table's wild-type CDR3 ASSPTGGSPSPLH, the enrichment is 0.

[…] (CDR3 as printed); G6D derived by comparing it with the table's wild-type CDR3 ASSPTGGSPSPLH: the enrichment came to 0.

For the variant […] (CDR3 as printed); G6E derived by comparing it with the table's wild-type CDR3 ASSPTGGSPSPLH, the enrichment amounted to 0.

Turning to […] (CDR3 as printed); G6H derived by comparing it with the table's wild-type CDR3 ASSPTGGSPSPLH, the enrichment turned out to be 0.

Take […] (CDR3 as printed); P11S derived by comparing it with the table's wild-type CDR3 ASSPTGGSPSPLH: the enrichment was determined as 0.

For the variant […] (CDR3 as printed); G6R derived by comparing it with the table's wild-type CDR3 ASSPTGGSPSPLH, the enrichment was determined as 0.

Consider […] (CDR3 as printed); P9Q derived by comparing it with the table's wild-type CDR3 ASSPTGGSPSPLH, for which the enrichment stood at 0.

For […] (CDR3 as printed); G7Y derived by comparing it with the table's wild-type CDR3 ASSPTGGSPSPLH, the enrichment turned out to be 0.

In the case of […] (CDR3 as printed); H13Q derived by comparing it with the table's wild-type CDR3 ASSPTGGSPSPLH, the enrichment was determined as 0.

Consider […] (CDR3 as printed); H13A derived by comparing it with the table's wild-type CDR3 ASSPTGGSPSPLH, for which the enrichment is 0.

Turning to […] (CDR3 as printed); G7C derived by comparing it with the table's wild-type CDR3 ASSPTGGSPSPLH, the enrichment is 0.

Take […] (CDR3 as printed); P9E derived by comparing it with the table's wild-type CDR3 ASSPTGGSPSPLH: the enrichment was 0.

As to […] (CDR3 as printed); L12A derived by comparing it with the table's wild-type CDR3 ASSPTGGSPSPLH, the enrichment was 0.

As for […] (CDR3 as printed); P9R derived by comparing it with the table's wild-type CDR3 ASSPTGGSPSPLH, the enrichment was 0.

On to […] (CDR3 as printed); A1Y derived by comparing it with the table's wild-type CDR3 ASSPTGGSPSPLH, for which the enrichment is 0.

Regarding […] (CDR3 as printed); G7W derived by comparing it with the table's wild-type CDR3 ASSPTGGSPSPLH, the enrichment stood at 0.

As for […] (CDR3 as printed); P9S derived by comparing it with the table's wild-type CDR3 ASSPTGGSPSPLH, the enrichment came to 0.

Regarding […] (CDR3 as printed); P11W derived by comparing it with the table's wild-type CDR3 ASSPTGGSPSPLH, the enrichment came to 0.

As to […] (CDR3 as printed); A1C derived by comparing it with the table's wild-type CDR3 ASSPTGGSPSPLH, the enrichment came out at 0.

For […] (CDR3 as printed); A1G derived by comparing it with the table's wild-type CDR3 ASSPTGGSPSPLH, the enrichment was found to be 0.

Consider […] (CDR3 as printed); G7L derived by comparing it with the table's wild-type CDR3 ASSPTGGSPSPLH, for which the enrichment stood at 0.

With […] (CDR3 as printed); G7D derived by comparing it with the table's wild-type CDR3 ASSPTGGSPSPLH, the enrichment is 0.

In the case of […] (CDR3 as printed); A1S derived by comparing it with the table's wild-type CDR3 ASSPTGGSPSPLH, the enrichment is 0.

Take […] (CDR3 as printed); L12Q derived by comparing it with the table's wild-type CDR3 ASSPTGGSPSPLH: the enrichment came out at 0.

As for […] (CDR3 as printed); G7N derived by comparing it with the table's wild-type CDR3 ASSPTGGSPSPLH, the enrichment amounted to 0.

Consider […] (CDR3 as printed); P9M derived by comparing it with the table's wild-type CDR3 ASSPTGGSPSPLH, for which the enrichment came out at 0.

For […] (CDR3 as printed); G6P derived by comparing it with the table's wild-type CDR3 ASSPTGGSPSPLH, the enrichment is 0.

For […] (CDR3 as printed); P4E derived by comparing it with the table's wild-type CDR3 ASSPTGGSPSPLH, the enrichment amounted to 0.

Consider […] (CDR3 as printed); L12V derived by comparing it with the table's wild-type CDR3 ASSPTGGSPSPLH, for which the enrichment turned out to be 0.

Consider […] (CDR3 as printed); H13E derived by comparing it with the table's wild-type CDR3 ASSPTGGSPSPLH, for which the enrichment worked out at 0.

Take […] (CDR3 as printed); P11E derived by comparing it with the table's wild-type CDR3 ASSPTGGSPSPLH: the enrichment was 0.

Take […] (CDR3 as printed); H13S derived by comparing it with the table's wild-type CDR3 ASSPTGGSPSPLH: the enrichment was 0.

Take […] (CDR3 as printed); H13D derived by comparing it with the table's wild-type CDR3 ASSPTGGSPSPLH: the enrichment came out at 0.

[…] (CDR3 as printed); L12Y derived by comparing it with the table's wild-type CDR3 ASSPTGGSPSPLH: the enrichment came to 0.

As to […] (CDR3 as printed); P9T derived by comparing it with the table's wild-type CDR3 ASSPTGGSPSPLH, the enrichment worked out at 0.

On to […] (CDR3 as printed); G7R derived by comparing it with the table's wild-type CDR3 ASSPTGGSPSPLH, for which the enrichment amounted to 0.

On to […] (CDR3 as printed); L12F derived by comparing it with the table's wild-type CDR3 ASSPTGGSPSPLH, for which the enrichment came out at 0.

In the case of […] (CDR3 as printed); P4W derived by comparing it with the table's wild-type CDR3 ASSPTGGSPSPLH, the enrichment amounted to 0.

Take […] (CDR3 as printed); A1M derived by comparing it with the table's wild-type CDR3 ASSPTGGSPSPLH: the enrichment turned out to be 0.

Turning to […] (CDR3 as printed); G6F derived by comparing it with the table's wild-type CDR3 ASSPTGGSPSPLH, the enrichment was 0.

For […] (CDR3 as printed); L12D derived by comparing it with the table's wild-type CDR3 ASSPTGGSPSPLH, the enrichment is 0.

Turning to […] (CDR3 as printed); P4I derived by comparing it with the table's wild-type CDR3 ASSPTGGSPSPLH, the enrichment was 0.

As for […] (CDR3 as printed); P9W derived by comparing it with the table's wild-type CDR3 ASSPTGGSPSPLH, the enrichment came out at 0.

[…] (CDR3 as printed); L12G derived by comparing it with the table's wild-type CDR3 ASSPTGGSPSPLH: the enrichment was determined as 0.

For the variant […] (CDR3 as printed); H13M derived by comparing it with the table's wild-type CDR3 ASSPTGGSPSPLH, the enrichment was determined as 0.

As to […] (CDR3 as printed); P11Y derived by comparing it with the table's wild-type CDR3 ASSPTGGSPSPLH, the enrichment was found to be 0.

As for […] (CDR3 as printed); G6K derived by comparing it with the table's wild-type CDR3 ASSPTGGSPSPLH, the enrichment is 0.

Regarding […] (CDR3 as printed); P4N derived by comparing it with the table's wild-type CDR3 ASSPTGGSPSPLH, the enrichment came out at 0.

Take […] (CDR3 as printed); P9Y derived by comparing it with the table's wild-type CDR3 ASSPTGGSPSPLH: the enrichment came out at 0.

With […] (CDR3 as printed); P11R derived by comparing it with the table's wild-type CDR3 ASSPTGGSPSPLH, the enrichment stood at 0.

Regarding […] (CDR3 as printed); S2F derived by comparing it with the table's wild-type CDR3 ASSPTGGSPSPLH, the enrichment is 0.

In the case of […] (CDR3 as printed); L12C derived by comparing it with the table's wild-type CDR3 ASSPTGGSPSPLH, the enrichment worked out at 0.

[…] (CDR3 as printed); H13W derived by comparing it with the table's wild-type CDR3 ASSPTGGSPSPLH: the enrichment worked out at 0.

In the case of […] (CDR3 as printed); G7K derived by comparing it with the table's wild-type CDR3 ASSPTGGSPSPLH, the enrichment came to 0.

Consider […] (CDR3 as printed); H13I derived by comparing it with the table's wild-type CDR3 ASSPTGGSPSPLH, for which the enrichment was determined as 0.

As to […] (CDR3 as printed); P4Y derived by comparing it with the table's wild-type CDR3 ASSPTGGSPSPLH, the enrichment worked out at 0.

As to […] (CDR3 as printed); P4L derived by comparing it with the table's wild-type CDR3 ASSPTGGSPSPLH, the enrichment was 0.

For […] (CDR3 as printed); P4A derived by comparing it with the table's wild-type CDR3 ASSPTGGSPSPLH, the enrichment is 0.

Consider […] (CDR3 as printed); P9C derived by comparing it with the table's wild-type CDR3 ASSPTGGSPSPLH, for which the enrichment amounted to 0.

As to […] (CDR3 as printed); P11N derived by comparing it with the table's wild-type CDR3 ASSPTGGSPSPLH, the enrichment came to 0.

Take […] (CDR3 as printed); G7E derived by comparing it with the table's wild-type CDR3 ASSPTGGSPSPLH: the enrichment stood at 0.

Consider […] (CDR3 as printed); P4F derived by comparing it with the table's wild-type CDR3 ASSPTGGSPSPLH, for which the enrichment came out at 0.

[…] (CDR3 as printed); A1N derived by comparing it with the table's wild-type CDR3 ASSPTGGSPSPLH: the enrichment is 0.

Turning to […] (CDR3 as printed); P9L derived by comparing it with the table's wild-type CDR3 ASSPTGGSPSPLH, the enrichment turned out to be 0.

As for […] (CDR3 as printed); A1T derived by comparing it with the table's wild-type CDR3 ASSPTGGSPSPLH, the enrichment is 0.

Regarding […] (CDR3 as printed); S2E derived by comparing it with the table's wild-type CDR3 ASSPTGGSPSPLH, the enrichment came to 0.

Take […] (CDR3 as printed); G6A derived by comparing it with the table's wild-type CDR3 ASSPTGGSPSPLH: the enrichment came out at 0.

Take […] (CDR3 as printed); P11L derived by comparing it with the table's wild-type CDR3 ASSPTGGSPSPLH: the enrichment was found to be 0.

On to […] (CDR3 as printed); S2A derived by comparing it with the table's wild-type CDR3 ASSPTGGSPSPLH, for which the enrichment amounted to 0.

Turning to […] (CDR3 as printed); S2H derived by comparing it with the table's wild-type CDR3 ASSPTGGSPSPLH, the enrichment was 0.

As for […] (CDR3 as printed); G7Q derived by comparing it with the table's wild-type CDR3 ASSPTGGSPSPLH, the enrichment was 0.

For the variant […] (CDR3 as printed); P4R derived by comparing it with the table's wild-type CDR3 ASSPTGGSPSPLH, the enrichment came to 0.

The record behind these values is article PMC13397619.
